Experimental data from US20220096653A1, “CONJUGATE COMPRISING LIGAND AND CEACAM5 ANTIBODY FAB FRAGMENT” (ASTELLAS PHARMA INC., priority 2019, published 2022).
Where two headings read alike, the source gives them in different places. One block for each molecule: values may come before it.

Legend:
[1] = biological target: human cancer-specific MUC1 peptide (PTL 1) (human); test: ELISA on immobilised human cancer-specific MUC1 peptide, 4-parameter fit, duplicate (Example 6-2)
[2] = mouse, in vivo
Procedure: (§1) A Gd-labeled conjugate of the conjugate containing a peptide linker produced in one of the above Examples was administered from the tail vein of mice (BALB/c or BALB/c nu/nu) so that the protein mass was 0.02 mg (100 μL) per animal. After about 24 hours, the mice were sacrificed and the kidneys were removed, and the amount of Gd in the kidneys was measured using ICP-MS. The present test was carried out in 3 cases in each group, the mean value of the 3 cases was calculated, and the amount of Gd contained per kidney after administration was shown as a percentage (% of dose/tissue) of the total amount of Gd administered.
(§2) Based on the percentage of the control conjugate (% of dose/tissue), the proportion of decrease in the amount of Gd contained in the kidneys of each of the conjugates having a peptide linker was determined and shown in Table 28.

[3] = set-up: species or system mice (BALB/c nu/nu); details: mouse, in vivo
Procedure: A Gd-labeled conjugate of the conjugate containing a peptide linker produced in one of the above Examples was administered from the tail vein of tumor-bearing mice so that the protein mass was 0.02 mg (100 μL) per animal. As the tumor-bearing mice used in the present Example, mice (BALB/c nu/nu) that were in a tumor-bearing state brought about by transplanting human colorectal cancer cell line LS174T cells (ATCC(registered trademark); CL-188) at 2.0 to 5.0×10^6 cells/mouse subcutaneously on the back before administration of the sample were used. 24 hours after administration of the sample, the mice were sacrificed, the kidneys and the tumor were removed, and the amounts of Gd in the kidneys and in the tumor were measured using ICP-MS. The present test was carried out in 3 cases in each group, and the mean value of the 3 cases was calculated. The amount of Gd contained per kidney after administration was shown as a percentage of the amount of Gd administered (% of dose/tissue), and the amount of Gd contained per g of tumor tissue was shown as a percentage of the total amount of Gd administered (% of dose/g).

[4] = mouse, in vivo; remark: listed apart in the source
Procedure: as §1

[5] = Kidney accumulation evaluation test of Gd-labeled conjugates, normal mice (Example 4-1); details: for Proportion of decrease (amount of Gd contained in the kidneys): based on control conjugate Ex-No. 47, about 24 hours; for % of dose/tissue (amount of Gd contained per kidney): tail vein, 0.02 mg protein per animal, about 24 hours, ICP-MS, mean of 3 cases
Procedure: as §1, §2

EC50 [1]: 0.09 nM
B1: [Gd/DOTA-NH-CH2-(1,4-Ph)-NH-C(═O)-Met-Ile-NH-(CH2)2-Z1(#S)]p-Fab^5 (Fab, V domains shown)
VH: QVQLVQSGAEVKKPGASVKVSCKASGYTFTNYGLSWVRQAPGQGLEWMGENHPGSGIIYHNEKFRGRVTLTADRSTSTAYMELSSLRSEDTAVYYCARSSGTRGFDYWGQGTLVTVSS
VL: DVVMTQTPLSLSVTPGQPASISCRSSQSIVHSNGNTYLEWYLQKPGQSPQLLIYRVSNRFSGVPDRFSGSGSGTDFTLKISRVEAEDVGVYYCFQGSHGPWTFGQGTKLEIKR
modifications: labeling may sit on this chain; sites not stated; labeling portion (MW 1175) bound via 2-iminothiolane-treated amino groups of the Fab, sites and chain not stated; 1-3 per Fab by MS; Gln 1 pyroglutamic acid as Fab^5 is defined in paragraph 370

EC50 [1]: 0.16 nM
B2: Ex-No 111, conjugate of Fab^5 (structure given only as drawing CHEM-US-00168) (Fab, V domains shown)
VH: QVQLVQSGAEVKKPGASVKVSCKASGYTFTNYGLSWVRQAPGQGLEWMGENHPGSGIIYHNEKFRGRVTLTADRSTSTAYMELSSLRSEDTAVYYCARSSGTRGFDYWGQGTLVTVSS
VL: DVVMTQTPLSLSVTPGQPASISCRSSQSIVHSNGNTYLEWYLQKPGQSPQLLIYRVSNRFSGVPDRFSGSGSGTDFTLKISRVEAEDVGVYYCFQGSHGPWTFGQGTKLEIKR
modifications: labeling may sit on this chain; sites not stated; low molecular weight molecule (MW 1391) bound to the Fab, sites and chain not stated; 1-2 per Fab by MS; Gln 1 pyroglutamic acid as Fab^5 is defined in paragraph 370

EC50 [1]: 0.08 nM
B3: Ex-No 109, conjugate of Fab^5 (structure given only as drawing CHEM-US-00166) (Fab, V domains shown)
VH: QVQLVQSGAEVKKPGASVKVSCKASGYTFTNYGLSWVRQAPGQGLEWMGENHPGSGIIYHNEKFRGRVTLTADRSTSTAYMELSSLRSEDTAVYYCARSSGTRGFDYWGQGTLVTVSS
VL: DVVMTQTPLSLSVTPGQPASISCRSSQSIVHSNGNTYLEWYLQKPGQSPQLLIYRVSNRFSGVPDRFSGSGSGTDFTLKISRVEAEDVGVYYCFQGSHGPWTFGQGTKLEIKR
modifications: labeling may sit on this chain; sites not stated; low molecular weight molecule (MW 1216) bound to the Fab, sites and chain not stated; 1-2 per Fab by MS; Gln 1 pyroglutamic acid as Fab^5 is defined in paragraph 370

EC50 [1]: 0.19 nM
B4: Ex-No 110, conjugate of Fab^5 (structure given only as drawing CHEM-US-00167) (Fab, V domains shown)
VH: QVQLVQSGAEVKKPGASVKVSCKASGYTFTNYGLSWVRQAPGQGLEWMGENHPGSGIIYHNEKFRGRVTLTADRSTSTAYMELSSLRSEDTAVYYCARSSGTRGFDYWGQGTLVTVSS
VL: DVVMTQTPLSLSVTPGQPASISCRSSQSIVHSNGNTYLEWYLQKPGQSPQLLIYRVSNRFSGVPDRFSGSGSGTDFTLKISRVEAEDVGVYYCFQGSHGPWTFGQGTKLEIKR
modifications: labeling may sit on this chain; sites not stated; low molecular weight molecule (MW 1201) bound to the Fab, sites and chain not stated; 1-2 per Fab by MS; Gln 1 pyroglutamic acid as Fab^5 is defined in paragraph 370

EC50 [1]: 0.19 nM
B5: [Gd/DOTA-[2,5-(1,2,3,4-tetrahydroisoquinoline)]-C(═O)-Met-Gly-Lys*-C(═S)-NH-(1,4-Ph)-NH-C(═S)]p-Fab^5 (Fab, V domains shown)
VH: QVQLVQSGAEVKKPGASVKVSCKASGYTFTNYGLSWVRQAPGQGLEWMGENHPGSGIIYHNEKFRGRVTLTADRSTSTAYMELSSLRSEDTAVYYCARSSGTRGFDYWGQGTLVTVSS
VL: DVVMTQTPLSLSVTPGQPASISCRSSQSIVHSNGNTYLEWYLQKPGQSPQLLIYRVSNRFSGVPDRFSGSGSGTDFTLKISRVEAEDVGVYYCFQGSHGPWTFGQGTKLEIKR
modifications: labeling may sit on this chain; sites not stated; labeling portion (MW 1228) on amino groups of the Fab, sites and chain not stated; 1-2 per Fab by MS; Gln 1 pyroglutamic acid as Fab^5 is defined in paragraph 370

B6: [Gd/DOTA-NH—(CH2CH2O)3—CH2—C(═O)—NH—CH2-(1,3-Ph)-C(═O)-Met-Gly-Lys*-Z2(#N)]p-Fab^2 (conjugate)
heavy: EVQLVESGGGLVQPGGSLRLSCAASGFNIRDTYMHWVRQAPGKGLEWVARIDPANGNSRYVPKFQGRFTISADTSRNTAYLQMNSLRAEDTAVYYCAPFGYYVSDYAMAYWGQGTLVTVSSASTKGPSVFPLAPSSKSTSGGTAALGCLVKDYFPEPVTVSWNSGALTSGVHTFPAVLQSSGLYSLSSVVTVPSSSLGTQTYICNVNHKPSNTKVDKKVEPKSCD
light: DIQLTQSPSSLSASVGDRVTITCRAGESVDIFGVGFLHWYQQKPGKAPKLLIYRASNLESGIPSRFSGSGSRTDFTLTISSLQPEDFATYYCQQTNEDPYTFGQGTKVEIKRTVAAPSVFIFPPSDEQLKSGTASVVCLLNNFYPREAKVQWKVDNALQSGNSQESVTEQDSKDSTYSLSSTLTLSKADYEKHKVYACEVTHQGLSSPVTKSFNRGEC
% of dose/tissue (amount of Gd contained per kidney) [2]: 6.8 % of dose/tissue
Proportion of decrease (amount of Gd contained in the kidneys) [2]: 78.0%
Renal residual amount (tumor-bearing mice) % of dose/tissue [3]: 8.40 % of dose/tissue
Renal residual amount (tumor-bearing mice) Proportion of decrease [3]: 67.48%

B7: [Gd/DOTA-NH—CH2-(1,4-Ph)-NH—C(═O)-Met-Ile-NH—(CH2)2-(A-4 and/or A-5)]p-Fab^2 (conjugate)
heavy: EVQLVESGGGLVQPGGSLRLSCAASGFNIRDTYMHWVRQAPGKGLEWVARIDPANGNSRYVPKFQGRFTISADTSRNTAYLQMNSLRAEDTAVYYCAPFGYYVSDYAMAYWGQGTLVTVSSASTKGPSVFPLAPSSKSTSGGTAALGCLVKDYFPEPVTVSWNSGALTSGVHTFPAVLQSSGLYSLSSVVTVPSSSLGTQTYICNVNHKPSNTKVDKKVEPKSCD
light: DIQLTQSPSSLSASVGDRVTITCRAGESVDIFGVGFLHWYQQKPGKAPKLLIYRASNLESGIPSRFSGSGSRTDFTLTISSLQPEDFATYYCQQTNEDPYTFGQGTKVEIKRTVAAPSVFIFPPSDEQLKSGTASVVCLLNNFYPREAKVQWKVDNALQSGNSQESVTEQDSKDSTYSLSSTLTLSKADYEKHKVYACEVTHQGLSSPVTKSFNRGEC
Renal residual amount (normal mice) % of dose/tissue [4]: 2.43 % of dose/tissue
Renal residual amount (normal mice) Proportion of decrease [4]: 92.15%

B8: [Gd/DOTA-NH—(CH2CH2O)3—CH2—C(═O)—NH—CH2-(1,3-Ph)-C(═O)-Met-Gly-Lys*-Z2(#S)]p-Fab^2 (conjugate)
heavy: EVQLVESGGGLVQPGGSLRLSCAASGFNIRDTYMHWVRQAPGKGLEWVARIDPANGNSRYVPKFQGRFTISADTSRNTAYLQMNSLRAEDTAVYYCAPFGYYVSDYAMAYWGQGTLVTVSSASTKGPSVFPLAPSSKSTSGGTAALGCLVKDYFPEPVTVSWNSGALTSGVHTFPAVLQSSGLYSLSSVVTVPSSSLGTQTYICNVNHKPSNTKVDKKVEPKSCD
light: DIQLTQSPSSLSASVGDRVTITCRAGESVDIFGVGFLHWYQQKPGKAPKLLIYRASNLESGIPSRFSGSGSRTDFTLTISSLQPEDFATYYCQQTNEDPYTFGQGTKVEIKRTVAAPSVFIFPPSDEQLKSGTASVVCLLNNFYPREAKVQWKVDNALQSGNSQESVTEQDSKDSTYSLSSTLTLSKADYEKHKVYACEVTHQGLSSPVTKSFNRGEC
% of dose/tissue (amount of Gd contained per kidney) [2]: 7.0 % of dose/tissue
Proportion of decrease (amount of Gd contained in the kidneys) [2]: 77.4%
Renal residual amount (tumor-bearing mice) % of dose/tissue [3]: 9.40 % of dose/tissue
Renal residual amount (tumor-bearing mice) Proportion of decrease [3]: 63.61%

B9: [Gd/4arm-DOTA-CH2-(1,4-Ph)-NH—C(═S)—NH—CH2-(1,3-Ph)-C(═O)-Met-Gly-Lys*-Z2(#S)]p-Fab^2 (conjugate)
heavy: EVQLVESGGGLVQPGGSLRLSCAASGFNIRDTYMHWVRQAPGKGLEWVARIDPANGNSRYVPKFQGRFTISADTSRNTAYLQMNSLRAEDTAVYYCAPFGYYVSDYAMAYWGQGTLVTVSSASTKGPSVFPLAPSSKSTSGGTAALGCLVKDYFPEPVTVSWNSGALTSGVHTFPAVLQSSGLYSLSSVVTVPSSSLGTQTYICNVNHKPSNTKVDKKVEPKSCD
light: DIQLTQSPSSLSASVGDRVTITCRAGESVDIFGVGFLHWYQQKPGKAPKLLIYRASNLESGIPSRFSGSGSRTDFTLTISSLQPEDFATYYCQQTNEDPYTFGQGTKVEIKRTVAAPSVFIFPPSDEQLKSGTASVVCLLNNFYPREAKVQWKVDNALQSGNSQESVTEQDSKDSTYSLSSTLTLSKADYEKHKVYACEVTHQGLSSPVTKSFNRGEC
Proportion of decrease (amount of Gd contained in the kidneys) [5]: 72.9%
% of dose/tissue (amount of Gd contained per kidney) [5]: 8.4 % of dose/tissue

B10: [Gd/4arm-DOTA-CH2-(1,4-Ph)-NH—C(═S)-Gly-Phe-Lys*-Z2(#N)]p-Fab^2 (conjugate)
heavy: EVQLVESGGGLVQPGGSLRLSCAASGFNIRDTYMHWVRQAPGKGLEWVARIDPANGNSRYVPKFQGRFTISADTSRNTAYLQMNSLRAEDTAVYYCAPFGYYVSDYAMAYWGQGTLVTVSSASTKGPSVFPLAPSSKSTSGGTAALGCLVKDYFPEPVTVSWNSGALTSGVHTFPAVLQSSGLYSLSSVVTVPSSSLGTQTYICNVNHKPSNTKVDKKVEPKSCD
light: DIQLTQSPSSLSASVGDRVTITCRAGESVDIFGVGFLHWYQQKPGKAPKLLIYRASNLESGIPSRFSGSGSRTDFTLTISSLQPEDFATYYCQQTNEDPYTFGQGTKVEIKRTVAAPSVFIFPPSDEQLKSGTASVVCLLNNFYPREAKVQWKVDNALQSGNSQESVTEQDSKDSTYSLSSTLTLSKADYEKHKVYACEVTHQGLSSPVTKSFNRGEC
Proportion of decrease (amount of Gd contained in the kidneys) [5]: 68.0%
% of dose/tissue (amount of Gd contained per kidney) [5]: 9.9 % of dose/tissue

B11: [Gd/DOTA-NH—CH2-(1,3-Ph)-C(═O)-Met-Gly-Lys*-Z2(#S)]p-Fab^2 (conjugate)
heavy: EVQLVESGGGLVQPGGSLRLSCAASGFNIRDTYMHWVRQAPGKGLEWVARIDPANGNSRYVPKFQGRFTISADTSRNTAYLQMNSLRAEDTAVYYCAPFGYYVSDYAMAYWGQGTLVTVSSASTKGPSVFPLAPSSKSTSGGTAALGCLVKDYFPEPVTVSWNSGALTSGVHTFPAVLQSSGLYSLSSVVTVPSSSLGTQTYICNVNHKPSNTKVDKKVEPKSCD
light: DIQLTQSPSSLSASVGDRVTITCRAGESVDIFGVGFLHWYQQKPGKAPKLLIYRASNLESGIPSRFSGSGSRTDFTLTISSLQPEDFATYYCQQTNEDPYTFGQGTKVEIKRTVAAPSVFIFPPSDEQLKSGTASVVCLLNNFYPREAKVQWKVDNALQSGNSQESVTEQDSKDSTYSLSSTLTLSKADYEKHKVYACEVTHQGLSSPVTKSFNRGEC
% of dose/tissue (amount of Gd contained per kidney) [2]: 12.9 % of dose/tissue
Proportion of decrease (amount of Gd contained in the kidneys) [2]: 58.3%
Renal residual amount (tumor-bearing mice) % of dose/tissue [3]: 12.33 % of dose/tissue
Renal residual amount (tumor-bearing mice) Proportion of decrease [3]: 52.26%

B12: [Gd/DOTA-NH—CH2-(1,4-Ph)-NH—C(═O)-Met-Ile-NH—(CH2)2-(A-3)]p-Fab^2 (conjugate)
heavy: EVQLVESGGGLVQPGGSLRLSCAASGFNIRDTYMHWVRQAPGKGLEWVARIDPANGNSRYVPKFQGRFTISADTSRNTAYLQMNSLRAEDTAVYYCAPFGYYVSDYAMAYWGQGTLVTVSSASTKGPSVFPLAPSSKSTSGGTAALGCLVKDYFPEPVTVSWNSGALTSGVHTFPAVLQSSGLYSLSSVVTVPSSSLGTQTYICNVNHKPSNTKVDKKVEPKSCD
light: DIQLTQSPSSLSASVGDRVTITCRAGESVDIFGVGFLHWYQQKPGKAPKLLIYRASNLESGIPSRFSGSGSRTDFTLTISSLQPEDFATYYCQQTNEDPYTFGQGTKVEIKRTVAAPSVFIFPPSDEQLKSGTASVVCLLNNFYPREAKVQWKVDNALQSGNSQESVTEQDSKDSTYSLSSTLTLSKADYEKHKVYACEVTHQGLSSPVTKSFNRGEC
Renal residual amount (normal mice) % of dose/tissue [4]: 1.43 % of dose/tissue
Renal residual amount (normal mice) Proportion of decrease [4]: 95.38%
